From paper PMC13107553

Biological target: Bicarbonate Transporter Related protein-1 (BTR1), human (human) (UniProt Q8NBS3)
Experiment: cryo-EM structure; BTR1 in LMNG/CHS micelle buffer; 140 mmol/L KCl, pH 7.5, 3.25 Å; further structures in 11 buffer conditions (KCl, NaCl, NH4Cl, NH4Cl + NaCl, boric acid; varying pH), 13 states, inward- and outward-facing

stoichiometry N: 2
Substance: Bicarbonate Transporter Related protein-1 (BTR1), human (from UniProt Q8NBS3 1-875) (natural protein)
